# B1: Histone deacetylase 3 (Homo sapiens), O15379 (parent)
# chain: MAKTVAYFYDPDVGNFHYGAGHPMKPHRLALTHSLVLHYGLYKKMIVFKPYQASQHDMCRFHSEDYIDFLQRVSPTNMQGFTKSLNAFNVGDDCPVFPGLFEFCSRYTGASLQGATQLNNKICDIAINWAGGLHHAKKFEASGFCYVNDIVIGILELLKYHPRVLYIDIDIHHGDGVQEAFYLTDRVMTVSFHKYGNYFFPGTGDMYEVGAESGRYYCLNVPLRDGIDDQSYKHLFQPVINQVVDFYQPTCIVLQCGADSLGCDRLGCFNLSIRGHGECVEYVKSFNIPLLVLGGGGYTVRNVARCWTYETSLLVEEAISEELPYSEYFEYFAPDFTLHPDVSTRIENQNSRQYLDQIRQTIFENLKMLNHAPSVQIHDVPADLLTYDRTDEADAEERGPEENYSRPEAPNEFYDGDHDNDKESDVEI
# partner: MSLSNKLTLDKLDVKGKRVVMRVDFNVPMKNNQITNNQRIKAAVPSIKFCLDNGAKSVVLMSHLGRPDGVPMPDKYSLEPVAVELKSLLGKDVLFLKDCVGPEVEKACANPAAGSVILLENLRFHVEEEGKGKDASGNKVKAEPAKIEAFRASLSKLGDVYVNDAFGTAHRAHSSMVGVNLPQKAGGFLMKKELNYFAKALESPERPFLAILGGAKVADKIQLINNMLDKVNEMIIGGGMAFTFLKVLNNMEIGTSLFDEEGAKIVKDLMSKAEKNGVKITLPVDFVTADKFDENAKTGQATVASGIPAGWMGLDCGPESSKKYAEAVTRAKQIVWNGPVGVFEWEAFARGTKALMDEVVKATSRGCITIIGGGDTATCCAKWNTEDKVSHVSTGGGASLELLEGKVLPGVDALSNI
# Variants of: B1
# Settings: with pgk1_human PGK1, P00558
row,effect of a mutation on the interaction,Variant
1,decreasing interaction strength,MAKTVAYFYDPDVGNFHYGAGHPMKPHRLALTHSLVLHYGLYKKMIVFKPYQASQHDMCRFHSEDYIDFLQRVSPTNMQGFTKSLNAFNVGDDCPVFPGLFEFCSRYTGASLQGATQLNNKICDIAINWAGGLHHAKKFEASGFCYVNDIVIGILELLKYHPRVLYIDIDIHHGDGVQEAFYLTDRVMTVSFHKYGNYFFPGTGDMYEVGAESGRYYCLNVPLRDGIDDQSYKHLFQPVINQVVDFYQPTCIVLQCGADSLGCDRLGCFNLSIRGHGECVEYVKSFNIPLLVLGGGGYTVRNVARCWTYETSLLVEEAISEELPYSEYFEYFAPDFTLHPDVSTRIENQNSRQYLDQIRQTIFENLKMLNHAPSVQIHDVPADLLTYDRTDEADAEERGPEENYSRPEAPNEFYDGDHDNDKEADVEI [S424A]

# Variants of: B1
# Settings: with PGK1, P00558-1
row,effect of a mutation on the interaction,Variant
1,decreasing interaction strength,MAKTVAYFYDPDVGNFHYGAGHPMKPHRLALTHSLVLHYGLYKKMIVFKPYQASQHDMCRFHSEDYIDFLQRVSPTNMQGFTKSLNAFNVGDDCPVFPGLFEFCSRYTGASLQGATQLNNKICDIAINWAGGLHHAKKFEASGFCYVNDIVIGILELLKYHPRVLYIDIDIHHGDGVQEAFYLTDRVMTVSFHKYGNYFFPGTGDMYEVGAESGRYYCLNVPLRDGIDDQSYKHLFQPVINQVVDFYQPTCIVLQCGADSLGCDRLGCFNLSIRGHGECVEYVKSFNIPLLVLGGGGYTVRNVARCWTYETSLLVEEAISEELPYSEYFEYFAPDFTLHPDVSTRIENQNSRQYLDQIRQTIFENLKMLNHAPSVQIHDVPADLLTYDRTDEADAEERGPEENYSRPEAPNEFYDGDHDNDKEADVEI [S424A]
